According to patent US20040170969:

System: recombinant MOB expressed as a GST-fusion protein

Chain of FLAG-Ndr (cells treated with okadaic acid) (chain, as listed by the source): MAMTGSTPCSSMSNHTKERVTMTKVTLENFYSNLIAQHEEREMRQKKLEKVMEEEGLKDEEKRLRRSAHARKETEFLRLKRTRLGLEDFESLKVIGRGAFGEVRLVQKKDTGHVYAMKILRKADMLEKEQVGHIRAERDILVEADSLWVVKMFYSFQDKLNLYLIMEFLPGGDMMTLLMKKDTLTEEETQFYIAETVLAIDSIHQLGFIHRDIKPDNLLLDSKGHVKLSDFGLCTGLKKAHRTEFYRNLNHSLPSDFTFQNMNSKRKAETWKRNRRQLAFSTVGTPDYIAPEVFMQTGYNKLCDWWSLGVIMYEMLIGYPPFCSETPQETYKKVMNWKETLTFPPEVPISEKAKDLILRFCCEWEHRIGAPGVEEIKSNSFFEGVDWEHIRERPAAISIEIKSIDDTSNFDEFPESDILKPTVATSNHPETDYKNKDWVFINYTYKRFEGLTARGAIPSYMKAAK

**Q.** Which “phosphorylation of GST-MOB by Ndr (FIG. 19)” value does the source give for “FLAG-Ndr (cells treated with okadaic acid)” here?
**A.** Its value is “recombinant MOB expressed as a GST-fusion protein is specifically phosphorylated by active Ndr”.
